These results are taken from a protein production outcome set (Wang et al. 2014).

The series can be described thus: label from the status in PepcDB records.
For “MNAADLTIWLVAGAGVLSFISPCSLPLYPSYLSYITGVSIQDLKENRGIMQKSAIIHTVFFMIGFSVIFYALGLSVSWIGITFSSNQKLIQQIGGIFIVLMGLFMTGLFQPKWLMAEKKVQYRSKSTGYIRSILVGMTYAAGWTPCVGPIFSAVLMLGATNPEGALLYITAYTLGFAVPFFVMAFFIGKVKWIVTYANVMMKIGGGMMIVTGILLYTNQMTKITAFFIRLFGGFTGF”, the protein production result was “failed”. As for “MKIKTSYLIYAVIATVFAGLSMVTDIFEKGNFEAIFSNLGMIIGLSILAYILITMAKSFIDLVINELKN”, the entry is “failed”; as for “MRVLAIRHVEIEDLGMMEDIFREKNWSFDYLDTPKGEKLERPLEEYSLVVLLGGYMGAYEEEKYPFLKYEFQLIEEILKKEIPFLGICLGSQMLAKVLGASVYRGKNGEEIGWYFVEKVSDNKFFREFPDRLRVFQWHGDTFDLPRRATRVFTSEKYENQGFVYGKAVGLQFHIEVGARTMKRWIEAYKDELEKKKIDPRLLLETAEREEKVLKGLLRSLLERMVES”, “not failed”. Next, “MSRKLQDSAFRLLKKAAYDIDHDRYKKAFENLDKVEKIEKEVNNPEISYHLLFFKGFAKYRIDELEESLALFGKALEISWDLFSKEPEKEDYRSFMRDTIGSIGDILLKLEDPVKAREYISPMKGIFEKTVLGFEKLLESDPENPEYLEDFLKTIEHIGLCFEAGELTGDAVPLFDKKFDLIEKLLKSETEISEHLSSLDDSLMNFGRMCEGEEYLEEEYIEEAKRVYDRAIEIYGKVLDKDPENSETKVYLSYIYRYMAGMYSDQENLVKAEECYKEALGLLESEIENEPENIPVSENIEVSENISVPKNILFSMAIADMYKDSGLIFSDTEDTTKARDYYTKARETFRGLINKYPDLLEADKNLASSLDELAELFSEIGDFESAEMCYKDELNIYENLLQKEPENPENPEYSLKLSDIYRELGDLFAEEEEIEKARAYYDKEIEIYENLHPAEADKLMLEANKADTWNQIGRLYAEEEPETAVQYHERALPIFLEAFESDPTSEFFHEELLETLTVLGTLFKENREFEKAIRMYERVLEVQKQLLEIMPPASCHDHDHDHNLNHSHNLNHSHNLNHTHDLNHDHDLNHDLDHDHEMDHDHALEHCHDLDIETTYFELGVLHSEIGDEEKASVYHRQALERFEQIIAEQSGNPEILILTSGKAFFSGMSLLEKLESENKDSSIARKYYELALRTIEKLYEAYPMNLKLQEMLASFAEQIGDIYRDADKLEETIQEYEYAYRSLKILYENDPENPKHLHHMLGALNNIGIGYSVTDQQEKGKECFEKALALNESLAKSNPEDLNPLRRNFLLFSNYANLLEELGDSKTAKEYRKKAEELDAKLTEEDPEWTSLVEEL”: “failed”; “MSLSLLITSITINTSHLQGMLGFYRIIGFQFTASKVDKGSEVHRAVHNGVEFSLYSIQNPQRSQIPSLQLGFQITDLEKTVQELVKIPGAMCILDPTDMPDGKKAIVLDPDGHSIELCELEGHHHHHH”: “not failed”; “MGHHHHHHSHMKMEHQNKRSPLHAAAEAGHVDICHMLVQAGANIDTCSEDQRTPLMEAAENNHLEAVKYLIKAGALVDPKDAEGSTCLHLAAKKGHYEVVQYLLSNGQMDVNCQDDGGWTPMIWATEYKHVDLVKLLLSKGSDINIRDNEENICLHWAAFSGCVDIAEILLAAKCDLHAVNIHGDSPLHIAARENRYDCVVLFLSRDSDVTLKNKEGETPLQCASLNSQV”: “failed”. Next, “SDDNKTTGATYDPNQPVTVESFMPVEGKLREKVIVKGSNFGTDKSKVKVYFVDEAAERLSTVIGIDNNTLYCLAPRQLPGGNRIKVIVDGKEVTTDGTFKYEQAQNVSTISGSASKDGNDDGDLASAKFKYMWGIAAVGNNTVLAYQRDDPRVRLISVDDNKVTTVHPGFKGGKPAVTKDKQRVYSIGWEGTHTVYVYMKASGWAPTRIGQLGSTFSGKIGAVALDETEEWLYFVDSNKNFGRFNVKTQEVTLIKQLELSGSLGTNPGPYLIYYFVDSNFYMSDQNLSSVYKITPDGECEWFCGSATQKTVQDGLREEALFAQPNGMTVDEDGNFYIVDGFKGYCLRKLDILDGYVSTVAGQVDVASQIDGTPLEATFNYPYDICYDGEGGYWIAEAWGKAIRKYAVE”: “not failed”; “MNEYDEECLLTFLKKQSQLFDEPVAETMEEAEAFLEDCMAVVVDSLDEVREYFEESGADVENMLEHHHHHH”: “not failed”. For “MSELEEDFAKILMLKEERIKELEKRLSEKEEEIQELKRKLHKCQSVLPVPSTHIGPRTTRAQGISAEPQTYRSFHDLRQAFRKFTKSERSKDLIKEAILDNDFMKNLELSQIQEIVDCMYPVEYGKDSCIIKEGDVGSLVYVMEDGKVEVTKEGVKLCTMGPGKVFGELAILYNCTRTATVKTLVNVKLWAIDRQCFQTIMMRTGL”, the protein production result is recorded as “failed”.

As to “MPIFSFLLFVFISSFTPGPNNFLAMTYANQHGLKRSINFCFGVAFGFFILTSLCSFFNIVLINIIPIIEFPLKILGVAYMLYLAFKIITSKGGAGHNEKNNKNLFTVGIFLQFINPKGILFGLTVVSTFILPYYNSYSSFLLFSLFLGIVGLLSTFSWSLFGSMFQKLLLKHNQLFNIIMAVLLVFSAVSIVIH”, the protein production result is listed as “failed”. Next, “MGNKLVNSLSKITTSSKEVTSDILVMNFTIVNAFLIGNKTQWVLVDTALENSADFILKAAEKRFGKGSVPKAIILTHGHFDHVGSVIKLSKLWSVPVYIHELEMPYVTGKKDYPLADPTVDEGMVAKISQTFPHTSIDISSNVSPLPSDSSIPYMPDWKWIHTPGHTDGHISLFREKDHVLIVGDAFCTTKQESLLSVITHHEEISGPPKYLTTDWAKAKNSIICLKNLKPLIAIPSHGEELSGEELTKHLELLINNFDEIAKPAEGQFVTNK”: “failed”; “MSLLKIFYVILGFISLGLGLIGIILPILPTTPFLLLTAFCFVKGSDKFDKWFKGTKIYKNHLESFEKNRAMTLKTKLTILLTADIMLLFPLILSKSIHLKIFIVILMMFKFYYFIFRIKTVKAGDVVEQNR”: “failed”; “MELQLAIDLLNKEDAAELANKVKDYVDIVEIGTPIIYNEGLPAVKHMADNISNVKVLADMKIMDAADYEVSQAIKFGADVITILGVAEDASIKAAIEEAHKNNKQLLVDMIAVQDLEKRAKELDEMGADYIAVHTGYDLQAEGQSPLESLRTVKSVIKNSKVAVAGGIKPDTIKDIVAESPDLVIVGGGIANADDPVEAAKQCRAAIEGK”: “failed”. As for “MSRFLTFFLIVFSYALQAQVASLTNAILYRNDGNLIKAKEEIDKAVVNEKTIGMPKTWFYTGLIYKDLYQATPTDLAALTTSTAAFKKVFELEKPAGEFSKKSQEALEQIWAISINNGVNLYQLENYRQAITDFERAQGIKPGDTTAYVYAFYAANELKDQALLEKYSSALVRLNYASEAVYYIDIESLMDKNLLDSAYTVSKKALTNYPSDIALKTQQTELMVKMNKTQEAIENLKVLSTKNPKDVQLLINIGSQYTNLNDEPHAAEYYQKALAIDSVNFNANYNMAVFSLRKANEISKQIVVSDNNLKKSFKAIPTVATDPLRQNLQKELAVSTKYYNRAVLGAKDEEAKKNVKTLQDNITSFEDQFLK”, the protein production result is “failed”. Turning to “MRQIPQNHIHTRSTPFWNKETAPAGIFERHLDKGTRPGVYPRLSVMQGAVKYLGYADEHCSEPEEIMVINAGEFGVFPPEKWHNIEVMTDDTYFNIDFFVAPEVLMEGATSRKVIHAGRE”, the protein production entry is “failed”.

For “MEEVYHDEPEKFNHILHLIRDYFNHRDDRARITACMGELMRDHLNLLVRFFDFFPAEASEGLAQLQTIAATSVSPDSTIDDAVSYINTVKEAFHDEPAKYYEFFQLFYDIRYRLIDVAGGITRVEELLKAHKNLLVRLNAFLPPEAQRILHLKIEQRAASDINKRKRVASFIGKLKERFQGDDRHVYESFLEILTMYQEGNKSVNDLYQEVGFLVGTLWLDYTFS”, the protein production entry is “failed”.
